The values that follow come from publication PMC2192062.

This assay concerns the target H-2Kb, peptide-free ('empty') MHC class I molecule on RMA-S cells (mouse | mouse (endogenous in RMA-S)). Description: MHC stabilization assay.

“SIINFEKL, CTL epitope derived from ovalbumin (peptide)” yielded an SI (stabilization index) of 450 to 500.
